Measurements published in US20110045003A1 (SYNOVEX, published 2011).

What was measured:
[1] = target: T1, Peptide 4 (first 33 amino acids, G1-G33, of the human Cad-11 EC1 domain) (human); experiment: ELISA on biotinylated EC1 peptides
T1 construct: also called PEP4; Peptide 4 immunogen
T1 peptide: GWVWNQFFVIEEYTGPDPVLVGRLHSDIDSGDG
Method: (§1) The specificity of H1M1 and H14 anti-Cad-11 antibodies was tested further using an ELISA against the first 33 amino acids of the EC1 domains of Cad-11, Cad-7, Cad-8, Cad-20, Cad-24, Cad-9, Cad-18, and MN-Cad. Peptides corresponding to the region of Cad-7, Cad-8, Cad-20, Cad-24, Cad-9, Cad-18, MN-Cad that overlapped with the G1-G33 region of the Cad-11 EC1 domain were synthesized and conjugated to biotin. 100 μl of a 30 ng/ml solution of each of these peptides in PBS-Tween (0.05%) were incubated in each well of a 96-well Netravidin plate for 2-3 hrs at 4° C. and then washed twice with PBS-Tween (0.05%). Various concentrations of the anti-Cad-11 antibody were incubated in each well for 1 hr at 22° C. and then washed twice with PBS-Tween (0.05%). 100 μl of a 1/1000 dilution of a goat anti-mouse IgG secondary antibody were added to each well, incubated for 30 min at 22° C., and then washed twice with PBS-Tween (0.05%). 100 μl/well of room temperature TMB (3,3′,5,5′-tetramethylbenzidine) reagent was added to each well and color was allowed to develop for 5 min at 22° C.

[2] = target: T2, Peptide 1 (amino acids G1-P18 of the Cad-11 EC1 domain) (human); experiment: ELISA on coated peptide or protein, antibody at one dilution, goat anti-mouse IgG, TMB, OD450
T2 construct: Range counted on the EC1 domain; also called PEP1
T2 peptide: GWVWNQFFVIEEYTGPDP
Method: (§2) To determine the epitope within the Cad-11 EC1 domain that the Peptide 4 Cad-11 EC1 antibodies H1M1 and H14 bind, four different peptides spanning the first 37 amino acids of the EC1 region (see FIG. 22) were immobilized in an ELISA format and the ability of the H1M1 and H14 antibodies to bind each of the four peptides was determined. 96-well Reactibind plates were coated overnight at 4° C. with 0.3 ng/well of Peptide 1 (amino acids G1-P18 of the Cad-11 EC1 domain), 0.3 ng/well of Peptide 2 (amino acids G15-N34 of the Cad-11 EC1 domain), 0.3 ng/well of Peptide 3 (amino acids V19-Y37 of the Cad-11 EC1 domain), 0.3 ng/well of the immunogen Peptide 4 (amino acids G1-G33 of the Cad-11 EC1 domain), 20 ng of a fusion protein including the entire EC1 domain (EFL), or 20 ng of control human Ig (Fc-block). The wells were washed twice with PBS-Tween (0.05%), blocked with casein in dH₂0 for 3 hrs at 22° C. and then washed again twice with PBS-Tween (0.05%). Various dilutions of the different Peptide 4 Cad-11 EC1 domain antibodies were transferred to the peptide- or protein-coated wells, incubated for 45 min at 22° C. and then washed twice with PBS-Tween (0.05%). 100 μl of a 1/1000 dilution of goat anti-mouse IgG secondary antibody (Jackson ImmunoResearch, West Grove, Pa.) were added to each well, incubated for 30 min at 22° C. and then washed twice with PBS-Tween (0.05%). 100 μl/well of room temperature TMB reagent was added to each well and color was allowed to develop for 5 min at 22° C.

[3] = target: T3, Peptide 2 (amino acids G15-N34 of the Cad-11 EC1 domain) (human); experiment: as above
T3 construct: Range counted on the EC1 domain; also called PEP2
T3 peptide: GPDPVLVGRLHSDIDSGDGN
Method: as §2

[4] = target: T4, Peptide 3 (amino acids V19-Y37 of the human Cad-11 EC1 domain) (human); experiment: as above
T4 construct: also called PEP3; peptide V19-Y37
T4 peptide: VLVGRLHSDIDSGDGNIKY
Method: as §2

[5] = target: T5, Cad-9 EC1 domain peptide (region overlapping G1-G33 of Cad-11 EC1) (UniProt Q9ULB4 54-86, conjugated to biotin); experiment: ELISA on biotinylated EC1 domain peptide captured on a Neutravidin plate, goat anti-mouse IgG, TMB, A450
T5 construct: domain: first 33 amino acids of the EC1 domain
T5 peptide (looked up): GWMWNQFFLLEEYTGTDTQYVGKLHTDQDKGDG
Method: as §1

- fold higher binding to Cad-11 than to any of the other cadherins tested [1]: > 100 fold
- binding result [2]: no binding
- binding result [3]: binds
- binding result [4]: no binding
- binding result [5]: no binding
B1: murine H1M1 monoclonal anti-Cad-11 EC1 antibody (hybridoma H1M1, ATCC PTA-9699) (antibody, V domains shown)
VH: EVQLQQSGPELVKPGASVKISCKASGYSFTGYFMNWVKQSHGKSLEWIGRINPYTGDTFYNQKFKGKATLTVDKSSSTAHMELLSLSSEDSAVYYCGRLGSRYWYFDVWGAGTTVTVSS
VL: DVLMTQTPLSLPVSLGDQASISCRSSQSIIHSNGNTYLEWYLQKPGQSPKLLIYKVSNRFSGVPDRFTGSGSGTDFTLKISRVEAEDLGVYYCFQGSHVPWTFGGGTKLEIK
modifications: Biotinylated when used as the labelled competitor in Example 14; the letters are unchanged.
notes: murine antibody raised against Peptide 4; also called SYN0012; SYN0012/H1M1
